Results on 1 molecule are retold here after patent publication US20120107320A1 (UNIVERSITY COURT OF THE UNIVERSITY OF ABERDEEN, published 2012).

The target in this test is T1, human soluble CTLA-4 (sCTLA-4), natural soluble form (human, UniProt P16410-5 36-174, limits assumed).
T1 construct: also called natural soluble CTLA-4; soluble form of cytotoxic T-lymphocyte antigen 4
T1 sequence (looked up): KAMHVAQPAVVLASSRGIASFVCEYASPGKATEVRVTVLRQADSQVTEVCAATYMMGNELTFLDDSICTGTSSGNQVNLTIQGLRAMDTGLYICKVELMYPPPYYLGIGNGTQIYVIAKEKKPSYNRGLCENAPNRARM
Briefly: sandwich ELISA, capture with pan-specific mAb BNI3, detection with biotinylated JMW-3B3. From the text:
FIG. 7. Anti-sCTLA-4 JMW-3B3 distinguishes, in sera and culture supernatant, true natural soluble CTLA-4 from extracellular membrane-bound CTLA-4 (mCTLA-4). The extracellular portion of mCTLA-4 is encoded by exon 2 and is identical in sCTLA-4, mCTLA-4 and the recombinant soluble form of CTLA-4, CTLA4-Ig. […] Pan-specific anti-CTLA-4 mAb (clone BNI3) was used as the capture antibody.
(In general: In an ELISA, binding on a coated surface is turned into a signal by an enzyme label.)

B1: monoclonal anti-sCTLA-4 antibody JMW-3B3 (antibody, mouse IgG1, V domains shown)
VH: EVKLVNSGGGLVQPGNSLRLSCATSGFTFTDFYMSWVRQPPGKALEWLGFVRNRANGYTTEYSVSVKGRFIISRDNFQSTLFLQMNTLRAEDSGTYYCVRGPGDTADYTMDYWGQGTSVTVSS
VL: QAVVTQESAFTTSPGGTVILTCRSSTGAVTTNNYANWVQEKPDHLFTGLIGGTSNRAPGVPVRFSGSLIGDKAALTITGAQTEDDGMYFCALWYTTHFVFGGGTKVT
notes: It was biotinylated for detection in the sandwich ELISAs; also called mAb JMW-3B3; anti-sCTLA-4 mAb
Consider B1, for which the binding result was “binds”.
